Source: a protein production outcome set (Wang et al. 2014)

Assay: label from the status in PepcDB records
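Also: failed if final PepcDB status was selected cloned or expressed and not failed if soluble or beyond.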

| Sequence | protein production |
| --- | --- |
| MKKKKYLKWWIAAVSAVFIVGAGIFVYTQYKAAQTSGDVATKDGTSASASDITWNGKTYSYNEHLSNFLFLGIDTKEKAETKTGQADAGQADALYLLSWNRLEGDITVISIPRDTMTQIETFGPGGKSLGKSKDHISLSYAYGDGGYESCELAENAVSELLYGLPIDGYCALNMDGLPVLTDSVGGVTVTVPNDSLAEVDPGYAKGAVVTLKGEDTEQFVRYRNTEISQSAIARMERQQEYIRAFGEALKKASADKALVTDLYKAIEPYMVTNMGKSRFVDLTESVSEGKKVNRWTIPGEGIQGKEYDEYVVDDDALYEKTVETFYVEKK | failed |
| MIEKIIDLSVKNKLLTTLVTLLIFLASLWAIKSVRLDALPDLSPAQVVVQITYPNQSPKIVQEQVTYPLVSTFMSIANIDTVRGISSYESGLIYIIFKDGVNLYWARDRVLEQLNRVSNLPKDAKVEIGSDSTSIGWAYQYALSSDSKNLSDLKVLQDFYYRYALLGVDGVSEVASVGGFVKDYEVTLQNDSLIRYNLSLEQVANAIKNSNNDTGGGVILENGFEKIIRSHGYIQSLKDLEEIVVKKEGAIPLKIKDIASVRLTPKPRRGAANLNGDKEVVGGIVMVRYHADTYKVLKAIKEKIATLQASNPDVKITSVYDRSELIEKGIDNLIHTLIEESVIVLVIIAIFLLHFRSALVVIITLPLSVCISFLLMRYFNIEASIMSLGGIAIAIGAMVDAAIVMVENAHKHLQHIDVKDNAQRVNGIIEGVKHVGGAIFFALMIIVVSFLPIFALTGQEEKLFAPLAYTKTFAMLVGALLSITMVPILMVWLIKGRILEESKNPINAFFMKIYGVSLNVVLKFRYAFLIASVLGLGGLYVAYKKLNWEFIPQINEGVVMYMPVTINGVSIDTALEYLKKSNSAIKRLDFVKQVFGKVGRANTSTDAAGLSMIETYIELKPQNEWKEKLSYKEVRDKLEKTLQLKGLTNSWTYPIRGRTDMLLTGIRTPLGIKLYGNDTDKLQELAILMEQQLKTLKESLSVFAERSNNGYYITLDLNDENLARYGINKKAVLDAIKFALGGATLTTMIKGVENYPISLRLEDTERNTIEKLKNLYIKTAYNYMPLRELARIYYDNSPAVLKSEKGLNVNFIYIVPQNGISSDAYRQLAQKALEKIQLPNGYYYEFSGESQYLEEAFKTLQYIVPVSVFIIFILIVFALKNLTNSLLCFFTLPFAFLGGLIFMNLMGFNMSVAALVGFLALLGVASETAIVMIIYLEDAFQKFIKTPLKEQNSTTLKEAIMHGAVLRVRPKLMTFFSILASLIPIMYSHGTGSEIMKSIAAPMLGGMISSVVLTLFIIPTAYFVIKNAGIKSNQT | failed |
| MVPDWEEVLGLWRAGRYYEVHEVLEPYWLKATGEERRLLQGVILLAAALHQRRLGRPGLRNLRKAEARLEGLPCPLMGLDWRSLLQEARRRLGA | not failed |
| MASWLVLCRFVHFAVVLTLVGAWVFRPLLLGRDSAQSGHGAVHRQLDRLSRWLTLIGLGSGLCWLLLITASMAGSWSAALDPATVQLVLGKTFFGQVWTWHLLLNLLLLGLLLTPLGRRLPLQLGLGALLLATLAPVGHGAMLDGLAGQLLILNQVVHLSCVGIWLGGLLVLLLVLRQPPQASVEPLLRRFSGVGYGLVAGLLASGLINVRVLTGQWWPTPLFSGFALILLIKVLLVAGMLALALFNRLRIRGCDQRLASLRNSVQLEWLLGVAAVAAVSLLGTLPPMQVI | failed |
| MCDRHQKLIRATDKPNFFGIDHYGFPEAGEHPADPPGYYPEYFSSERFQRLGYHVEELRGGFYWVTSGGYDAAFVVTSDGVVAIDAPPTIGENMLAAIEDVTDKPVTHLIYSHWHTDHIGAASVFGPNVEIVAHDITKELLERFPDPNRPVPTVTFDKDHLLVVGGVTLELSYKGENHCPGNIFIYAPAQKVLTVIDIVSPGSATFMHCDASQNITGWYEAQKQLMEYEFDFLVAGHHMKYGTPETVAASIEYFQDVLDGAQAAVDRFSRSDALVSILEGAGWDQVFSGTENWINSMANFATKYVLEKKSSNGQLWSERLAGVTTQTKYHAYTVLESIRLERPRPNYRLRGENPPPFLT | failed |
| MNWGEGEWNSFFHFFTKEFINMSESFKELFEQSIAGAQFYPGAIITAKVIDIDDDFVTLNAGLKSEGIVAVEEFYDKNGELEVKVGDTVEVALDSVEDGHGETLLSREKAKRQEAWRKLSKCHENNETVTGLISGKVKGGFTVEIGSIRAFLPGSLVDVRPVRDPSYLEGKELEFKVIKMDLKRNNIVVSRRAVVEEESSADRQALLESLHDGQELHGIVKNLTDYGAFIDLGGIDGLLHITDISWKRVKHPSEVLSVGQDVKVKVLSFDSERNRVSLGMKQLGNDPWVDLVERYPIGKRLQGKVTNITDYGCFVEIEEGVEGLVHMSEMDWTNKNVHPSKVVSLGDVVDVMVLEIDEERRRISLGMKQCVGNPWQQFASTHNKGEKVKGKIRSITDFGIFIGLDGDIDGLVHLSDISWTVPGEEAVKQFKKGQELEAVILAIDPERERISLGLKQLEGDSFASFAETYTKGSIVKGTVTAVEPKTVTVALAEDVSGTIRVSELSDERVDDATTIVKVGDEVEAKITNIDRKNRTISLSVKAKDAQDEADAIKKYSRTEAASTTLGDLLKEKMASKEGELEHHHHHH | not failed |
| MSLSIVENGRKLESTIDFSRFAQEIKQNGWKIMLAGLIVAVVAYPLISMITPKYVSTATVLLKAQQDNVSPLPQVDGYDSTRSGYYETQYALMQSRIVLEQAVRDIKLDQNPAFNGDTDKNADHRGDEQQRVDHALDSIVKNLTITGVRTTHLATISYESASPELAADIANGAAQAFIDYTARQKHLKTLKAKALNQKQMEEVWQQVVEQQAAIDQFLKKEGLLTFRGVDGFETEQLGIVTTKLADATQRRIRAETNDNSVRSNAGTSLENIISLPDISNHAQIQDLRIALIQARRSLYDLRKRYGVKHTKILEAEAQVQAIEEQTHTVLLELKAGLNKQYQAALRDEKYYQQLLEQQKVDFQTLASKRDEYNNLTTALNKTKELYKALYQRTKEQTLAGNYLEPDAILYDPAVPADHPSKPNKAMLLVMVVMLTLIFSVVYFIVRAALDNSINSISQMKKRLNVAPVGEIRTFASGVERSKVVRLITKAPLDVDIVHSMRTHILLSHPSCQAIAISSAEHGEGRSLLAHLLARSFSADQKTLLIDLDFFNDGGLTQDLANPSAIGVAELLQGQSPLDAALVIISENLSFLPRGNAVMSSLLMLSSEHVVTLMAELRTRYQRIIVDVAAVNQTQDSQLISRVIDGVVFVLKAGEWRAGDVLNAIDKVKQHRAVLIGAVMNRVADKNLETKEGIRSLNHRMNALINSTGHL | failed |
| MGVDNFSTTKKMFTWEVPGERVITLMTAGNLATTQALISLLEERSKTPSERSPSILERPTMFEVARLVGATLKEVIADTAGTGQVASSQFKASVIVGGQVKGGLPTLFLIYPEGNFIEVTEDSPFFQIGEAKYGKPILVRAYDPDLSFEDTIRLLMVSFDSTIKANLSVGLPLDLQVYANDSFAIKEQSRVEADDAYFQSISERWGDALRKALSDLPPYKSLLEHHHHHH | failed |
| IVRDSQRHKQLPVDRRKSQMEEVQDELIHRLTIGRSAAQKKFHVPRQNVPVINITYDSTPEDVKTWLQSKGFNPVTVNSLGVLNGAQLFSLNKDELRTVCPEGARVYSQITVQKAALEDSSGSSELQEIMRRRQEKISAAASDSGVESFDEGSSH | failed |
| MSLASLIGLAVCTGNAFSPALAAEAKQPNLVIIMADDLGYGDLATYGHQIVKTPNIDRLAQEGVKFTDYYAPAPLSSPSRAGLLTGRMPFRTGIRSWIPSGKDVALGRNELTIANLLKAQGYDTAMMGKLHLNAGGDRTDQPQAQDMGFDYSLANTAGFVTDATLDNAKERPRYGMVYPTGWLRNGQPTPRADKMSGEYVSSEVVNWLDNKKDSKPFFLYVAFTEVHSPLASPKKYLDMYSQYMSAYQKQHPDLFYGDWADKPWRGVGEYYANISYLDAQVGKVLDKIKAMGEEDNTIVIFTSDNGPVTREARKVYELNLAGETDGLRGRKDNLWEGGIRVPAIIKYGKHLPQGMVSDTPVYGLDWMPTLAKMMNFKLPTDRTFDGESLVPVLEQKALKREKPLIFGIDMPFQDDPTDEWAIRDGDWKMIIDRNNKPKYLYNLKSDRYETLNLIGKKPDIEKQMYGKFLKYKTDIDNDSLMKARGDKPEAVTWGEGHHHHHH | not failed |
| MVKVTYDGVYVLSVKDDVPAADVLHAGDLITEIDGNAFKSSQEFIDYIHSKKVGDTVKINYKHGDKNEQADIKLTAIDKKGTPGIGITLVDDLEHHHHHH | not failed |
| MSPKTTKKIAILTSGGDAPGMNATLVYLTRYATSSEIEVFFVKNGYYGLYHDELVPAHQLDLSNSLFSAGTVIGSKRFVEFKELKVREQAAQNLKKRQIDYLVVIGGDGSYMGAKLLSELGVNCYCLPGTIDNDINSSEFTIGFLTALESIKVNVQAVYHTTKSHERVAIVEVMGRHCGDLAIFGALATNADFVVTPSNKMDLKQLESAVKKILQHQNHCVVIVSENIYGFDGYPSLTAIKQHFDANNMKCNLVSLGHTQRGFAPTSLELVQISLMAQHTINLIGQNKVNQVIGNKANVPVNYDFDQAFNMPPVDRSALIAVINKNII | failed |
| MPGVLVTGGTGKTGKVLVQVLRNAGVQARVASRNPAAADPDPIRFDWNDPTTYGPALDGMDRVFLLPPVESVDPLPLVEPFLRRAQRAGVQRLVMLGSAIVLPNAPSAVEMAAQVQAQPGGVVLRASGFMQNFLRPHPLAEHIHRLGEIRTAAGDGRLGWVDARDIAASAAALLADLEVDARSDYLITGPHGMSYPQAAQIITAQTGRRVRVERITEEEQAAAHRASGMPPAFADALAAVERGIKEGREDQVSTAVLELTGRPPRTFAEFVSDHAYEWTQ | failed |
| VLAEYASRIVSAEEAVKHIKNGERVALSHAAGVPQSCVDALVQQADLFQNVEIYHMLCLGEGKYMAPEMAPHFRHITNFVGGNSRKAVEENRADFIPVFFYEVPSMIRKDILHIDVAIVQLSMPDENGYCSFGVSCDYSKPAAESAHLVIGEINRQMPYVHGDNLIHISKLDYIVMADYPIYSLAKPKIGEVEEAIGRNCAELIEDGATLQLGIGAIPDAALLFLKDKKDLGIHTEMFSDGVVELVRSGVITGKKKTLHPGKMVATFLMGSEDVYHFIDKNPDVELYPVDYVNDPRVIAQNDNMVSINSCIEIDLMGQVVSECIGSKQFSGTGGQVDYVRGAAWSKNGKSIMAIPSTAKNGTASRIVPIIAEGAAVTTLRNEVDYVVTEYGIAQLKGKSLRQRAEALIAIAHPDFREELTKHLRKRFG | not failed |
| MDKQSSAGGVKRSVPCESNEVNETMPETPTGDSDPQPAPKKMKTSESSTILVVRYRRNVKRTSPEELLNDHARENRINPLQMEEEEFMEIMVEIPAK | failed |
| MEPQEEFITTEEVEQEIVPTVEVEQDVPVDIEGENDDDDEMMNDDEEALEVDMSNNSLTYFDKHTDSVFAIGHHPNLPLVCTGGGDNLAHLWTSHSQPPKFAGTLTGYGESVISCSFTSEGGFLVTADMSGKVLVHMGQKGGAQWKLASQMQEVEEIVWLKTHPTIARTFAFGATDGSVWCYQINEQDGSLEQLMSGFVHQQDCSMGEFINTDKGENTLELVTCSLDSTIVAWNCFTGQQLFKITQAEIKGLEAPWISLSLAPETLTKGNSGVVACGSNNGLLAVINCNNGGAILHLSTVIELKPEQDELDASIESISWSSKFSLMAIGLVCGEILLYDTSAWRVRHKFVLEDSVTKLMFDNDDLFASCINGKVYQFNARTGQEKFVCVGHNMGVLDFILLHPVANTGTEQKRKVITAGDEGVSLVFEVPN | failed |
| SIKENSYFAGGVKSLGFNQHGQDVSVGVMLPGEYTFGTQAPERMTVVKGALVVKRVGEADWTTYSSGESFDVEGNSSFELQVKDATAYLCEYL | not failed |
| MKWRSRQLSFSSAKWYGDVIWIFDPGIIGAQIDNEGDLKKCFIQTLFHSTGSRQSIRIWWREIMLSLILRIYLDKFLPWISLSIKEVGESSVINFSLWGCLHGTRFRRWYSPFQKLSALAITKKDVISSSWRCFNGMRCN | failed |
| MSMSTSTEVIAHHWAFAIFLIVAIGLCCLMLVGGWFLGGRARARSKNVPFESGIDSVGSARLRLSAKFYLVAMFFVIFDVEALYLFAWSTSIRESGWVGFVEAAIFIFVLLAGLVYLVRIGALDWTPARSRRERMNPETNSIANRQR | failed |
